Reference: patent US12006513B2, “Methods for the long-term expansion of granulocyte-macrophage progenitors and applications thereof” (University of Southern California, priority 2018, dated 2024)

Key:
[1] = system: bone marrow cells isolated from adult C57BL/6 mice; assay: Small molecule library screens on bone marrow cells in serum free N2B27 medium; format: cell-based, mouse; settings: second screening, together with GDC0879
mouse GMP = assay: Granulocyte differentiation of ex vivo expanded GMPs; format: cell-based; settings: RPMI 1640+10% FBS, 20 ng/mL GCSF, 72 h
Procedure: Long-term ex vivo expanded GMPs can differentiate into functional and mature granulocytes. Granulocyte colony-stimulating factor (G-CSF) is a known hematopoietic growth factor that regulates neutrophils production in the bone marrow. G-CSF was used to induce mouse GMP differentiation towards the neutrophil lineage. After culturing for 3 weeks in E7^+SCF/GDC/CHIR conditions, GMPs were re-plated in RPMI 1640+10% FBS medium and stimulated with 20 ng/mL of GCSF. Seventy-two hours after stimulation with GCSF, GMPs differentiated into cells that morphologically resembled granulocytes (e.g., see FIG. 3F). To further verify the identity of these cells, the cells were harvested and stained with Gr1 and CD115 antibodies and analyzed by flow cytometer. Granulocytes are Gr1^+ and CD115^−.

ex vivo expanded GMPs = assay: Macrophage differentiation of ex vivo expanded GMPs; format: cell-based, mouse; settings: RPMI 1640+10% FBS+20 ng/mL MCSF, 7 days
Procedure: FIG. 3A-I presents results of macrophages differentiation from GMPs. […] P7 GMPs were cultured in RPMI 1640+10% FBS+20 ng/mL MCSF for 7 days. Mature macrophages were re-plated, fixed and stained for CD11b and F4/80. (B) Provides the results of an in vitro functional test of the differentiated macrophages. 1×10^5 GMPs (P7) or 1×10^6 whole BM cells were seeded into 1 well of 6-well plate in RPMI 1640+10% FBS+20 ng/mL MCSF. 7 days later, mature bone marrow-derived macrophages (BMM) and GMP-derived macrophages (GMPM) were trypsinized, counted and reseeded into 48-well plate at 1×10^5 cells per well in RPMI 1640+10% FBS. After overnight, cells were stimulated with 500 ng/mL LPS for 6 or 24 h. The inflammatory cytokines in the supernatant were measured by ELISA. (C) Provides images of another in vitro functional test of the differentiated macrophages. Green: E. coli-GFP. Red: tdTomato^+ macrophages. Top image, GFP labeled E. coli were co-cultured with tdTomato^+ GMPs-derived macrophages. Consecutive pictures were taken each 30′ under Zeiss LSM-780 confocal microscope for 1 h. […] (E), cells were harvested and FITC positive cells were analyzed by using BD Arial flow cytometry. […]
Long-term ex vivo expanded GMPs can differentiate into functional and mature macrophages. […] After 6 or 24 h, the supernatant was harvested and the concentrations of inflammatory cytokines TNFα, IL6 and IL10 by ELISA were measured.

## O=C(NCCCn1ccnc1)c1cc(-c2ccco2)on1 [SKL2001]
[1]
  expansion of the uniform round-shaped cells: acted synergistically with GDC0879 to promote the expansion

B1: GCSF: granulocyte colony-stimulating factor, used at 20 ng/mL for granulocyte differentiation (protein, UniProt P09919 31-207, looked up)
Granulocyte …: TPLGPASSLPQSFLLKCLEQVRKIQGDGAALQEKLVSECATYKLCHPEELVLLGHSLGIPWAPLSSCPSQALQLAGCLSQLHSGLFLYQGLLQALEGISPELGPTLDTLQLDVADFATTIWQQMEELGMAPALQPTQGAMPAFASAFQRRAGGVLVASHLQSFLEVSYRVLRHLAQP
Mouse GMP
  cells derived from GMPs that were Gr1+ CD115−: more than 80%

B2: MCSF: macrophage colony-stimulating factor, used at 20 ng/mL for macrophage differentiation (protein, UniProt P09603 33-554, looked up)
Macrophage colony-stimulating …: EEVSEYCSHMIGSGHLQSLQRLIDSQMETSCQITFEFVDQEQLKDPVCYLKKAFLLVQDIMEDTMRFRDNTPNAIAIVQLQELSLRLKSCFTKDYEEHDKACVRTFYETPLQLLEKVKNVFNETKNLLDKDWNIFSKNCNNSFAECSSQDVVTKPDCNCLYPKAIPSSDPASVSPHQPLAPSMAPVAGLTWEDSEGTEGSSLLPGEQPLHTVDPGSAKQRPPRSTCQSFEPPETPVVKDSTIGGSPQPRPSVGAFNPGMEDILDSAMGTNWVPEEASGEASEIPVPQGTELSPSRPGGGSMQTEPARPSNFLSASSPLPASAKGQQPADVTGTALPRVGPVRPTGQDWNHTPQKTDHPSALLRDPPEPGSPRISSLRPQGLSNPSTLSAQPQLSRSHSSGSVLPLGELEGRRSTRDRRSPAEPEGGPASEGAARPLPRFNSVPLTDTGHERQSEGSFSPQLQESVFHLLVPSVILVLLAVGGLLFYRWRRRSHQEPQRADSPLEQPEGSPLTQDDRQVELPV
Ex vivo expanded GMPs
  cells expressing macrophage markers CD11b and F4/80: almost all the cells expressed both CD11b and F4/80
